Results reported in article PMC9540369.

Target: mTFP1
Test: SDS-PAGE with in-gel fluorescence; whole-cell extract of C. reinhardtii transformants in SDS sample buffer without β-mercaptoethanol, 40°C for 5 min; 15% resolving gel; gel washed in water to refold the fluorescent proteins; imaged with bandpass filters

In the case of mTFP1, the stoichiometry N is reported as 2.
